The assay addresses T1, Recombinant human RO60 (human, UniProt P10155 1-538).
T1 construct: Recombinant human RO60 (rRO60), Abcam ab73786; see the vendor's data sheet for ab73786; also called rRO60; source: bought: Abcam (ab73786)
Put plainly: BLI; BLItz system; antibody against RO60 captured on a Protein-A biosensor, rRO60 bound to it, rDDX6 bound for 2 min and dissociation for 2 min; 25°C; 10 mM Tris-HCl (pH 8.0), 150 mM NaCl; 193 nM rDDX6 with 917 nM or 1833 nM rRO60. Particulars: both partners purified. On the technique in general: Biolayer interferometry detects binding as a change in optical thickness at a sensor tip.

Where “and” joins values, the source holds several entries; their conditions need not be identical. Equal values may be shown once.

Kd data for one molecule are collected here from PMC6166933 (PLoS ONE, 2018).

The Kd is the equilibrium constant for the complex coming apart.

T1 sequence (P10155 whole entry): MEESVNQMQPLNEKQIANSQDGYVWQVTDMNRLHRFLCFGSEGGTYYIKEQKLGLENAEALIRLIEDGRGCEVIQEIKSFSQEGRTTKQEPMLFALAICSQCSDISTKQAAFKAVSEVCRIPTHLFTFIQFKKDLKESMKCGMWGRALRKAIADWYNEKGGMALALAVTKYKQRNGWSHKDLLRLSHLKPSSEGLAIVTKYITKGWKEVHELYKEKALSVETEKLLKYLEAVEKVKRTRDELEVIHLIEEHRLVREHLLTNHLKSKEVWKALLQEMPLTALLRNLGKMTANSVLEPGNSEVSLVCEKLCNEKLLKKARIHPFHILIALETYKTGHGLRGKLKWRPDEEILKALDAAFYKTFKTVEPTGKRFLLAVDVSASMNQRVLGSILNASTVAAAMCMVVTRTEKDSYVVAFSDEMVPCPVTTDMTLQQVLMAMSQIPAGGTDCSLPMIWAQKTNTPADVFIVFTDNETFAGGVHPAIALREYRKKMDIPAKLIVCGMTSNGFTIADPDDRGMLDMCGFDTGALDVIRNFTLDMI

B1: Recombinant GST-tagged human DDX6 (natural protein, UniProt P26196 1-483, looked up)
chain: MSTARTENPVIMGLSSQNGQLRGPVKPTGGPGGGGTQTQQQMNQLKNTNTINNGTQQQAQSMTTTIKPGDDWKKTLKLPPKDLRIKTSDVTSTKGNEFEDYCLKRELLMGIFEMGWEKPSPIQEESIPIALSGRDILARAKNGTGKSGAYLIPLLERLDLKKDNIQAMVIVPTRELALQVSQICIQVSKHMGGAKVMATTGGTNLRDDIMRLDDTVHVVIATPGRILDLIKKGVAKVDHVQMIVLDEADKLLSQDFVQIMEDIILTLPKNRQILLYSATFPLSVQKFMNSHLQKPYEINLMEELTLKGVTQYYAYVTERQKVHCLNTLFSRLQINQSIIFCNSSQRVELLAKKISQLGYSCFYIHAKMRQEHRNRVFHDFRNGLCRNLVCTDLFTRGIDIQAVNVVINFDFPKLAETYLHRIGRSGRFGHLGLAINLITYDDRFNLKSIEEQLGTEIKPIPSNIDKSLYVAEYHSEPVEDEKP
notes: Recombinant GST-tagged human DDX6 (rDDX6), Abcam ab114574; it is not clear that this means full length; The printed 79 kDa with GST would fit the whole protein; also called rDDX6; source: bought: Abcam (ab114574)
As to B1, the equilibrium dissociation constant (Kd) was 620 nM and 950 nM.
